From the supplement of paper PMC9170038

Test system: MS2 coat protein
Assay: apparent KD of MS2 coat protein; higher = weaker reporter binding
Conditions: Eterna round: R107
Procedure: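 RNA-MaP round R107: designed RNA switches with theophylline, tryptophan, arginine or FMN aptamers are transcribed on-chip within common flanks. They are titrated with SNAP-549-labelled MS2 coat protein in RNA-MaP buffer (100 mM Tris pH 7.5, 80 mM KCl, 4 mM MgCl2), without ligand or with the indicated ligand. Median apparent KD per design.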

[1] = input ligand: theophylline 20 uM
[2] = input ligand: tryptophan 2.4 mM
[3] = input ligand: theophylline 2 mM

Sequence | apparent KD of MS2 coat protein (input ligand: arginine 13.2 mM) [nM] | apparent KD of MS2 coat protein [1] [nM] | apparent KD of MS2 coat protein [2] [nM] | apparent KD of MS2 coat protein (input ligand: none) [nM] | apparent KD of MS2 coat protein [3] [nM]
ACUCGGUGUUUGUUGCUCCGAGUACGUGAUACCAGUUAAUUUUAUGGCCCUUGGCAGCAUGGGACAUGAGGAUCACCCAUGUUUA [#04 SameState-TheophyllineA] | 125 | 344 | 318 | – | –
AGAAUAACACAUGAGGAUCACCCAUGUGAUACCAGCUAGGAAACUAGCCCUUGGCAGCACAUAAUCCUCAUGAGCUGCCAUAAUA [(M1)-(M2)-(T1)-(T2)-(M)'-(T)'_Design2_2/19/17] | 12 | 19.2 | 12.3 | – | –
AGAAUAUAGUCGGCCGCCACUCUACAUACAUGAGGAUCACCCAUGUUUACAUAGUGGAAACACAUGAGGACCGGGACAUAGGCAU [#16 Same State - Tryptophan B] | 8.17 | 13.2 | 9.98 | 12.2 | 11
AGACAUGAGGAUCACCCAUGUAGUACGGAUACCAGAUCCAGAUGCAUCCCUUGGCAGCUGUGGUACAGCGUUACAUCGCUCGUAG [Exclusion - Theophylline A (Freestyle 22)] | 17 | 23.9 | 18.8 | – | –
AGACAUGAGGAUCACCCAUGUAGUAUGGAUACCAGAUCCAGAUUUAUCCCUUGGCAGCUGUGGUACAGCGAUGGAUCGCUCCUAG [Exclusion - Theophylline A (Freestyle 11)] | 22.6 | 34 | 28 | – | –
AGACAUGUAAGAUAAAUGACUUAUACAGAUACCAGACUAGUCAAUGUCCCUUGGCAGCUGCAUAACAUGAGGAUCACCCAUGUAA [JR_ExcTheophyA_Sub009] | 20.6 | 27.5 | 24.4 | – | –
AGAGCAUUGACGGCCGCCACUCGUGUCACAUGAGGAUCACCCAUGUGACGGGUGAUCGCCCGGUUGAGGACCGGGUCAAUGCUCA [Omei Tryp SS B v8] | 10.4 | 13 | – | – | 11.2
AGAGUCUAGUCGGCCGCCACUCAUGUCCAAAGGACAUGAGGAUCACCCAUGUACCAAUGGUACAUGAGGACCGGGACUGGACUCA [Omei Tryp B SS C v2] | 227 | 343 | – | – | 120
AGAGUUAGACAAAAGUCUAGCUCACCAGAAGGAGCGUCCGAAAGGACAGGUAGGUCGCUGGUACAUGAGCAUCAGCCAUGUUCCU [ArgAS 15 #OpenEnded #AlternativeMS2] | 18.1 | 28 | 24.1 | 23.7 | 28.5
AGAGUUAGACAAAAGUCUAGCUCACCAGAAGGAGCGUCCGAAAGGACAGGUAGGUCGCUGGUGCAUGAGGAUCACCCAUGCUCCU [ArgAS 19 #OpenEnded #AlternativeMS2] | 66.6 | 171 | 211 | 204 | 243
AGAGUUAGACAAAAGUCUAGCUCACCAGAAGGAGCGUCCGAAAGGACAGGUAGGUCGCUGGUGCUUGAGGAUCACCCAAGUUCCU [ArgAS 22 #OpenEnded #AlternativeMS2] | 82.7 | 121 | 128 | 96.1 | 204
AGCAACUAGUCGGCCGCCACUCAUAUUACAUGAGGAUCACCCAUGUAUACAUGGUUGUUAUAUUUGAGGACCGGGACAGUUGCAU [JR_SSTryptoB_Sub018] | 59 | 69.9 | – | – | 75.7
AGCACACAUCCUGAUACCAGAGACAUGAGGAUCACCCAUGUCCGAUCGUCCUGCCUCAGACUCCCUUGGCAGCAGGAUGUGUGCU [Exclusion Theophylline B GF7] | 12.5 | 18.6 | 13.4 | – | –
AGCAUCUAGUCGGCCGCCACUCUUAUUACAUGAGGAUCACCCAUGUUUAAUUCAUGGUUAUAUUUGAGGACCGGGACAUUUGCAU [JR_ExcTryptoB_Sub007] | 39.7 | 70.2 | – | – | 74.9
AGCCACUCGAGUGAUCCUCACGAGUGGCUACGAGGACCGGUACGGCCGCCACUCGAAUUAACAUGAGGAUCACCCAUGUAAUCAC [Brourdmod05] | 81.1 | 135 | – | – | 597
AGCCCAUUACAUGAGGAUCACCCAUGUGAUACCAGUCAGGAAACUGACCCUUGGCAGCGCAUGAGGAUCACCCAUGCGCUGGGCA [Omei Theo A Exc A v6] | 10 | 11.7 | 12.2 | – | –
